B1: FAM189A2 (parent)
chain: GSEAAVIPLDLGCTQVTQDGDIPN

Variants of: B1
Assay: protein stability index of a GFP-peptide fusion (GPS, HEK-293T) (PSI 1-6); higher = more stable
Conditions: c terminus: a fixed tail appended
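Also: lentivirally expressed fusions sorted by FACS into six bins by GFP to DsRed ratio, PSI derived from sequencing read proportions per bin multiplied by bin number.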

Variant	protein stability index
GSEAAEIPLDLGCTQVTQDGDIPN	5.65
GSEAACIPLDLGCTQVTQDGDIPN	5.43
GSEAAGIPLDLGCTQVTQDGDIPN	5.33
GSEAAPIPLDLGCTQVTQDGDIPN	5.76
GSEAAMIPLDLGCTQVTQDGDIPN	5.25
GSEAADIPLDLGCTQVTQDGDIPN	5.63
GSEAAIIPLDLGCTQVTQDGDIPN	5.25
GSEAAKIPLDLGCTQVTQDGDIPN	5.71
GSEAASIPLDLGCTQVTQDGDIPN	5.58
GSEAARIPLDLGCTQVTQDGDIPN	5.57
GSEAAAIPLDLGCTQVTQDGDIPN	5.5
GSEAAFIPLDLGCTQVTQDGDIPN	4.91
GSEAAHIPLDLGCTQVTQDGDIPN	5.51
GSEAALIPLDLGCTQVTQDGDIPN	5.16
GSEAANIPLDLGCTQVTQDGDIPN	5.44
GSEAATIPLDLGCTQVTQDGDIPN	5.58
GSEAAYIPLDLGCTQVTQDGDIPN	5.35
GSEAAQIPLDLGCTQVTQDGDIPN	5.33
GSEAAWIPLDLGCTQVTQDGDIPN	4.92
GKEAAVIPLDLGCTQVTQDGDIPN	4.64
GTEAAVIPLDLGCTQVTQDGDIPN	5.01
GFEAAVIPLDLGCTQVTQDGDIPN	4.96
GQEAAVIPLDLGCTQVTQDGDIPN	5.36
GDEAAVIPLDLGCTQVTQDGDIPN	5.51

Variant	protein stability index
GGEAAVIPLDLGCTQVTQDGDIPN	5.03
GYEAAVIPLDLGCTQVTQDGDIPN	4.8
GEEAAVIPLDLGCTQVTQDGDIPN	5.55
GVEAAVIPLDLGCTQVTQDGDIPN	4.85
GREAAVIPLDLGCTQVTQDGDIPN	5.61
GHEAAVIPLDLGCTQVTQDGDIPN	5.25
GPEAAVIPLDLGCTQVTQDGDIPN	5.21
GLEAAVIPLDLGCTQVTQDGDIPN	4.77
GWEAAVIPLDLGCTQVTQDGDIPN	3.93
GMEAAVIPLDLGCTQVTQDGDIPN	4.89
GIEAAVIPLDLGCTQVTQDGDIPN	5.23
GNEAAVIPLDLGCTQVTQDGDIPN	5.52
GSHAAVIPLDLGCTQVTQDGDIPN	4.49
GSCAAVIPLDLGCTQVTQDGDIPN	4.83
GSAAAVIPLDLGCTQVTQDGDIPN	5.2
GSLAAVIPLDLGCTQVTQDGDIPN	4.54
GSDAAVIPLDLGCTQVTQDGDIPN	5.38
GSRAAVIPLDLGCTQVTQDGDIPN	5.08
GSWAAVIPLDLGCTQVTQDGDIPN	2.96
GSVAAVIPLDLGCTQVTQDGDIPN	4.49
GSFAAVIPLDLGCTQVTQDGDIPN	4.14
GSMAAVIPLDLGCTQVTQDGDIPN	4.45
GSSAAVIPLDLGCTQVTQDGDIPN	5.1
GSQAAVIPLDLGCTQVTQDGDIPN	5.3

Variant	protein stability index
GSNAAVIPLDLGCTQVTQDGDIPN	5.1
GSPAAVIPLDLGCTQVTQDGDIPN	5.23
GSTAAVIPLDLGCTQVTQDGDIPN	5.11
GSYAAVIPLDLGCTQVTQDGDIPN	4.18
GSIAAVIPLDLGCTQVTQDGDIPN	3.58
GSKAAVIPLDLGCTQVTQDGDIPN	5.35
GSGAAVIPLDLGCTQVTQDGDIPN	5.11
GSEAEVIPLDLGCTQVTQDGDIPN	5.13
GSEALVIPLDLGCTQVTQDGDIPN	4.57
GSEASVIPLDLGCTQVTQDGDIPN	5.51
GSEAMVIPLDLGCTQVTQDGDIPN	5.01
GSEATVIPLDLGCTQVTQDGDIPN	5.43
GSEAIVIPLDLGCTQVTQDGDIPN	3.79
GSEAWVIPLDLGCTQVTQDGDIPN	3.95
GSEANVIPLDLGCTQVTQDGDIPN	5.17
GSEADVIPLDLGCTQVTQDGDIPN	5.74
GSEAVVIPLDLGCTQVTQDGDIPN	5.08
GSEAYVIPLDLGCTQVTQDGDIPN	4.15
GSEAGVIPLDLGCTQVTQDGDIPN	5.36
GSEAHVIPLDLGCTQVTQDGDIPN	5.2
GSEARVIPLDLGCTQVTQDGDIPN	5.2
GSEACVIPLDLGCTQVTQDGDIPN	4.9
GSEAFVIPLDLGCTQVTQDGDIPN	4.64
GSEAPVIPLDLGCTQVTQDGDIPN	5.68

Variant	protein stability index
GSEAKVIPLDLGCTQVTQDGDIPN	5.19
GSEAQVIPLDLGCTQVTQDGDIPN	5.1
GSEAAVAPLDLGCTQVTQDGDIPN	5.57
GSEVAVIPLDLGCTQVTQDGDIPN	4.97
GSECAVIPLDLGCTQVTQDGDIPN	4.74
GSEWAVIPLDLGCTQVTQDGDIPN	4.53
GSEDAVIPLDLGCTQVTQDGDIPN	5.61
GSEKAVIPLDLGCTQVTQDGDIPN	5.49
GSEHAVIPLDLGCTQVTQDGDIPN	4.7
GSEQAVIPLDLGCTQVTQDGDIPN	5.36
GSENAVIPLDLGCTQVTQDGDIPN	5.58
GSEEAVIPLDLGCTQVTQDGDIPN	5.57
GSEIAVIPLDLGCTQVTQDGDIPN	4.37
GSERAVIPLDLGCTQVTQDGDIPN	5.4
GSEGAVIPLDLGCTQVTQDGDIPN	5.29
GSELAVIPLDLGCTQVTQDGDIPN	5.34
GSEFAVIPLDLGCTQVTQDGDIPN	4.44
GSEMAVIPLDLGCTQVTQDGDIPN	4.81
GSETAVIPLDLGCTQVTQDGDIPN	5.27
GSEPAVIPLDLGCTQVTQDGDIPN	5.53
GSESAVIPLDLGCTQVTQDGDIPN	5.24
GSEYAVIPLDLGCTQVTQDGDIPN	4.79
